Positions count from the first letter of the chain named.
T1: human SPNS2 D128A mutant (human, UniProt Q8IVW8 1-549)
T1 sequence: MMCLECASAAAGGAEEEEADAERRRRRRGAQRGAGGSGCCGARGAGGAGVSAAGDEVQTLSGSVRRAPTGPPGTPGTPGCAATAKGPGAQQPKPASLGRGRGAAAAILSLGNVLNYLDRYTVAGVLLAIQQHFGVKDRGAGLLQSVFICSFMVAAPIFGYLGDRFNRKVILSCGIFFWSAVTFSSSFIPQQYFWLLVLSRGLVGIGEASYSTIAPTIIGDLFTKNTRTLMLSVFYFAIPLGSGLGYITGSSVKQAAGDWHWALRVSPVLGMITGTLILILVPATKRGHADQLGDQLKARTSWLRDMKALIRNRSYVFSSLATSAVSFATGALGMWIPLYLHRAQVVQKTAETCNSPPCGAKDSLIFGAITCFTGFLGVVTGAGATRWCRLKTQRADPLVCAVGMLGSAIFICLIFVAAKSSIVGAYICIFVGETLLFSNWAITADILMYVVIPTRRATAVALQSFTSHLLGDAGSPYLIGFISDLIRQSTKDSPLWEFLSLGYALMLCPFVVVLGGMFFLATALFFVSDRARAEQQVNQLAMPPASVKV

T2: human SPNS2 Q131A mutant (human, UniProt Q8IVW8 1-549)
T2 sequence: T1 sequence with A128D, Q131A

T3: human SPNS2 G134A mutant (human, UniProt Q8IVW8 1-549)
T3 sequence: T1 sequence with A128D, G134A

T4: human SPNS2 Q190A mutant (human, UniProt Q8IVW8 1-549)
T4 sequence: T1 sequence with A128D, Q190A

T5: human SPNS2 I129A mutant (human, UniProt Q8IVW8 1-549)
T5 sequence: T1 sequence with A128D, I129A

B1: 37-0511F (antibody, IgG2b, V domains shown)
VH: EVHLQQSGAALVRPRASVKLSCKVSGDSISRYYVHFVKQRPGQGLEWIGRIDPEDDTTKYSEKFKNRATLTADASSDTASLILSGLTSDDTATYFCSTLTGLDYWGQGVMVTVSS
VL: DIQMTQSPPVLSTSVGDRVTLRCKPSQNVHSKLDWYQQKHGEAPKLLIYYTHNLQTGIPSRFSGSGSGTDYTLTISSLQPEDVATYYCFQYYSGWTFGGGTKLEMKR
B2: 53-0707E (antibody, IgG2b, V domains shown)
VH: B1 VH with H3Q, A10E, A16T, S30T, N66K, R67K, D77N, S80Y, L83F, D89E
VL: B1 VL with P25A
B3: 64-0807A (antibody, IgG2b, V domains shown)
VH: EVQVVESGGGLVQPGRSMKLSCAALGFTFRDYYMAWVRQTPTKGLEWVAAISTGGGNTYYRDSVKGRFTISRDNAKSTLYLQMDSLRSDDTATYYCARNPYGNYFDYWGQGVMVTVSS
VL: QFVLSQPNSVSTNLGSTVKLSCKRSTGNIGSNYVHWYQRHEGRSPTTLIYRDDKRPNGVPDRFSGSIDRSSNSALLTINNVQTEDEADYFCQSYSGGMYLFGGGTKLTVL
B4: 93-1310F (antibody, IgG2b, V domains shown)
VH: EVQLVETGGGLVQPGSSLKLSCATSGFTFSDTWMSWVRQAPGKGLEWVALIKDKNSNYEANYAESVKGRFTISRDDSKRRVYLQMFTLRDQDTATYYCTSHEDFYYYSSYYFDYWGHGVMVTVSS
VL: DIVLTQSPATLSVTPGESVSLSCRASQGISTSIHWYQQKSNGSPRLLIKYASQSISGIPSRFSGSGSGTDFTLRINRVESEDFSVYYCQQTYSLPLTFGSGTRLEIKR
B5: 96-1403F (antibody, IgG2b, V domains shown)
VH: B4 VH with Q13R, Y58S, V66I, R79S, F86N, S100R, S109G, H117Q
VL: B4 VL with A9P, K39R, G42E, S56A, T72I, R74S, S100P, R103K, I106V
B6: 65-0810G (antibody, IgG2b, V domains shown)
VH: EVHLVESGGGLVQPGRSMKLSCTASGFTFNNYYMAWVRQAPTKGLEWVASISTGGGYTYYRDSVKGRFTISRDNTGNTLYLQMDSLRSEDTATYYCARCWELPYWGQGVMVTVSS
VL: QFVLTQPNSVSTNLGSTVKLSCRRSSGNIGNNYVNWYRQHEGRSPTTMIYRDDTRPDGVPNRFSGSIDRSSNSALLTINNVRPEDEAYYFCQSYSGSIYIFGGGTKLTVL

What was measured:
Test in all cases: flow cytometry
[1] = molecular target: T1, human SPNS2 D128A mutant
[2] = molecular target: T2, human SPNS2 Q131A mutant
[3] = molecular target: T3, human SPNS2 G134A mutant
[4] = molecular target: T4, human SPNS2 Q190A mutant
[5] = molecular target: T5, human SPNS2 I129A mutant

Binder	binding ratio vs native type [1] [ratio]	binding ratio vs native type [2] [ratio]	binding ratio vs native type [4] [ratio]	further results
B1	< 0.5	–	–	–
B2	< 0.5	–	–	–
B3	–	< 0.5	–	binding ratio vs native type [3]: < 0.5 ratio
B4	–	–	< 0.5	–
B5	–	–	< 0.5	–
B6	–	< 0.5	–	binding ratio vs native type [5]: < 0.5 ratio

Source: US20210147523A1 (TEIJIN PHARMA, published 2021)
